The values that follow come from patent US20080145339, “Adeno-associated virus AAV Rep78 major regulatory protein mutants thereof and uses thereof” (University of Arkansas, published 2008).

The target in the data set is T1, AAV Rep78 wild-type (adeno-associated virus 2, UniProt Q89268 SEQ:1-621).
T1 sequence: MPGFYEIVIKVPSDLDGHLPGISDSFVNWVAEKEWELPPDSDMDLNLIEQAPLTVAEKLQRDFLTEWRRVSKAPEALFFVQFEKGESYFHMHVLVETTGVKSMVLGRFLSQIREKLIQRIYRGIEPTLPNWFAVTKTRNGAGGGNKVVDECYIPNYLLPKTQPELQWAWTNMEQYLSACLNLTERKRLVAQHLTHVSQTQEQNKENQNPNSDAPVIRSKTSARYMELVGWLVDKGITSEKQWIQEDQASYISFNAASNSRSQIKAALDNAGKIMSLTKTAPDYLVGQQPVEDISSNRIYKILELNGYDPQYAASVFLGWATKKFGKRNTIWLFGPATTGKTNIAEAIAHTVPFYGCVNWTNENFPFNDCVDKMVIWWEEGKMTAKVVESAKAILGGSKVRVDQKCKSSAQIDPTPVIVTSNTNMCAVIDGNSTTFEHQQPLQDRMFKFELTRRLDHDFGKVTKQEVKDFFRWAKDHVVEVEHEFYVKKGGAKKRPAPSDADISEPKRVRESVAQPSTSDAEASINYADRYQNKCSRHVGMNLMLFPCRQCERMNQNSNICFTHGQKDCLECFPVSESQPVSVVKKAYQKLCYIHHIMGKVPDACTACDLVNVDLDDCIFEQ
The data set is described as follows: EMSA; minus strand strongly recognized. Particulars: tags: MBP fusion (pMALc2, amylose purified); label: 32P. In general terms: A gel shift assay detects complexes by their altered migration in electrophoresis.

B1: HPV-16 p97 minus strand nt 14-106 (ssDNA)
DNA: CATTGCAGTTCTCTTTTGGTGCATAAAATGTCTGCTTTTATACTAACCGGTTTCGGTTCAACCGATTTCGGTTACGCCCTTAGTTTTATACAT
modifications: [NONE]
In the case of B1, the binding result is given as “binds”.
